Target: NPY Y1 receptor
Test: in vitro NPY Y1 receptor binding assay; tracer and cells not stated

Sequence of NPY Y1 receptor (P25929 whole entry): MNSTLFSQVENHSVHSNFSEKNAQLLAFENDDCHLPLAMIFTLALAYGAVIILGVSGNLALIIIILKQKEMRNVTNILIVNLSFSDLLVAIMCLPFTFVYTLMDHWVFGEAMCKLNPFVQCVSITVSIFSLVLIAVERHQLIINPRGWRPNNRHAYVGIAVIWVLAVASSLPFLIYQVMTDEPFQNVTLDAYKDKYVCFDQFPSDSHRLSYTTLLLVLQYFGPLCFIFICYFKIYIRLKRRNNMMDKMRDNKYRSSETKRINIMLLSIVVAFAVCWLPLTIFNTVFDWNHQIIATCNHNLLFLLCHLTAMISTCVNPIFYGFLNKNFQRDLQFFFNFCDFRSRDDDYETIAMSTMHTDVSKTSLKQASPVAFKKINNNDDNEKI

IC50: 1.09 nM
Substance: NPY(human, rat) control (from UniProt P01303 29-64) (peptide)

— patent US20090099074A1, “MODULATING FOOD INTAKE” (CONJUCHEM BIOTECHNOLOGIES INC., priority 2007, published 2009)
